Results from the Immune Epitope Database (IEDB).

How the values were obtained:
[1] = target: HLA-B*35:01; test: IEDB peptide-MHC binding, purified MHC/competitive/radioactivity; filed as Kd, often an IC50 or EC50 that approximates it; ≥ and ≤ were set here for values at or beyond the usual limits of such assays
[2] = target: HLA-A*02:01; test: as above
[3] = target: HLA-B*08:01; test: as above
[4] = target: HLA-A*02:01; test: IEDB peptide-MHC binding, purified MHC/competitive/fluorescence; filed as Kd, often an IC50 or EC50 that approximates it; ≥ and ≤ were set here for values at or beyond the usual limits of such assays
[5] = target: HLA-A*01:01; test: IEDB peptide-MHC binding, purified MHC/direct/fluorescence; filed as Kd, often an IC50 or EC50 that approximates it; ≥ and ≤ were set here for values at or beyond the usual limits of such assays; conditions: source organism: Giardia lamblia ATCC 50803
[6] = target: HLA-A*02:01; test: as above
[7] = target: HLA-A*03:01; test: as above; conditions: source organism: Giardia lamblia ATCC 50803
[8] = target: HLA-B*07:02; test: as above
[9] = target: HLA-B*15:01; test: as above
[10] = target: HLA-B*27:05; test: as above; conditions: source organism: Giardia lamblia ATCC 50803
[11] = target: HLA-B*58:01; test: as above
[12] = target: HLA-A*02:01; test: IEDB peptide-MHC binding, purified MHC/competitive/fluorescence; ≥ and ≤ were set here for values at or beyond the usual limits of such assays; conditions: source organism: Zaire ebolavirus
[13] = target: HLA-A*24:02; test: as above
[14] = target: HLA-A*31:01; test: IEDB peptide-MHC binding, purified MHC/direct/fluorescence; filed as Kd, often an IC50 or EC50 that approximates it; ≥ and ≤ were set here for values at or beyond the usual limits of such assays; conditions: source organism: Salmonella enterica subsp. enterica serovar Typhimurium
[15] = target: HLA-A*69:01; test: as above
[16] = target: HLA-B*40:01; test: as above
[17] = target: HLA-A*02:02; test: IEDB peptide-MHC binding, purified MHC/competitive/radioactivity; filed as Kd, often an IC50 or EC50 that approximates it; ≥ and ≤ were set here for values at or beyond the usual limits of such assays; conditions: source organism: Vaccinia virus WR
[18] = target: HLA-A*02:03; test: as above; conditions: source organism: Vaccinia virus WR
[19] = target: HLA-A*02:06; test: as above; conditions: source organism: Vaccinia virus WR
[20] = target: HLA-B*51:01; test: as above
[21] = target: HLA-B*39:01; test: IEDB peptide-MHC binding, purified MHC/competitive/fluorescence; filed as Kd, often an IC50 or EC50 that approximates it; ≥ and ≤ were set here for values at or beyond the usual limits of such assays; conditions: source organism: Escherichia coli str. K-12 substr. MG1655
[22] = target: HLA-A*11:01; test: IEDB peptide-MHC binding, purified MHC/direct/fluorescence; filed as Kd, often an IC50 or EC50 that approximates it; ≥ and ≤ were set here for values at or beyond the usual limits of such assays; conditions: source organism: SARS-CoV1
[23] = target: HLA-B*08:01; test: as above; conditions: source organism: SARS-CoV1
[24] = source organism: Dengue virus 1 Brazil/97-11/1997
[25] = source organism: Lassa virus Josiah
[26] = source organism: Vaccinia virus WR
[27] = source organism: Giardia lamblia ATCC 50803
[28] = source organism: Zaire ebolavirus
[29] = source organism: Salmonella enterica subsp. enterica serovar Typhimurium
[30] = source organism: Dengue virus 1 Singapore/S275/1990

WALCESITL
Kd [1, 24]: 0.0757 µM

IMKNHLRDI
Kd [2, 25]: 12.5 µM

RNALDNLAVL
Kd ([3]; source organism: Dengue virus 2 16681-PDK53): 6.43 µM

NLATSIYTI
Kd ([4]; source organism: Variola virus): 0.0011 µM

EAKRKLTEL
Kd [3, 26]: 0.00245 µM

ATSGYRIAY
Kd [5]: 0.0687 µM
Kd [6, 27]: ≥ 20 µM
Kd [7]: ≥ 20 µM
Kd [8, 27]: ≥ 20 µM
Kd [9, 27]: 0.045 µM
Kd [10]: ≥ 20 µM
Kd [11, 27]: 1.65 µM

FNKTIFLSE
Kd [3, 26]: 0.255 µM

QLVKGFERFQ
Kd ([4]; source organism: Variola virus): 0.634 µM

LEHGLFPQL
IC50 [12]: ≥ 73.2 µM
IC50 [13, 28]: 8.3 µM

LFLPKLVVG
IC50 [12]: 35.3 µM
IC50 [13, 28]: 1.56 µM

MLLCHKPTL
Kd [3, 26]: 0.0187 µM

TMYYKDVTV
Kd ([2]; source organism: Human alphaherpesvirus 1 strain 17): 0.025 µM

QVKDEKLNL
Kd ([4]; source organism: Variola virus): 0.324 µM

GMFGGCFAA
Kd [6, 29]: 0.01 µM
Kd [14]: 1.22 µM
Kd [15, 29]: 2.77 µM
Kd [9, 29]: 0.161 µM

GEEFFHQYL
Kd ([16]; source organism: Mammarenavirus juninense): 0.0102 µM

MYKSRVERV
Kd [3, 26]: 0.0465 µM

LAVSGVYPL
Kd [1, 30]: 0.0832 µM

YRGTTFAEG
IC50 [13, 28]: ≥ 147 µM

DAYRRIHSL
Kd ([15]; source organism: Homo sapiens): 0.119 µM
Kd ([8]; source organism: Homo sapiens): 16.4 µM

SIFLIFSII
Kd ([3]; source organism: Vaccinia virus Copenhagen): 0.858 µM

SSKYYIKNI
IC50 ([13]; source organism: Vaccinia virus): ≥ 1450 µM

KIDQIIHDF
IC50 [12]: 66.4 µM
IC50 [13, 28]: 46.9 µM

WALCEALTL
Kd ([1]; source organism: Dengue virus 2 Jamaica/1409/1983): 0.641 µM

SIHAHHQWM
Kd [3, 24]: 0.349 µM

HEHDQIGDI
IC50 ([13]; source organism: Variola virus): 23.8 µM

LLGCAANWI
Kd ([2]; source organism: Hepatitis B virus subtype ayw): ≥ 5 µM

ELLEPLYDV
Kd ([4]; source organism: Escherichia coli): 0.0018 µM

LLGPVIGML
Kd ([4]; source organism: Escherichia coli 536): 0.0034 µM

FVNFNSVKNL
Kd ([4]; source organism: Vaccinia virus L-IPV): 0.489 µM
Kd [17]: 2.02 µM
Kd [18]: 0.318 µM
Kd [19]: 2.2 µM

INRKGKVIGL
Kd ([3]; source organism: Dengue virus 4 Philippines/H241/1956): 3.66 µM

IMVGNETGL
Kd [2, 25]: 4.17 µM

RPRHQGVMV
Kd ([8]; source organism: Homo sapiens): 0.0515 µM

FTFSNVCESV
Kd ([4]; source organism: Vaccinia virus Tian Tan): 0.0084 µM

DECEFELAL
Kd ([16]; source organism: Mycobacterium tuberculosis): 0.803 µM

SPIINREGKV
Kd ([20]; source organism: Dengue virus 3 Martinique/1243/1999): ≥ 69.6 µM

WPLNEGIMAV
Kd [20, 30]: 0.304 µM

VYQVNNLEE
IC50 [13, 28]: ≥ 254 µM

NAPDDLVLF
IC50 [13, 28]: ≥ 107 µM

EAMNEENRF
IC50 [13, 28]: ≥ 147 µM

KRTLAAMPE
IC50 [13, 28]: 42.9 µM

FHNDSTPRY
Kd [21]: 3.47 µM

LMTLKDAML
Kd [2, 25]: 0.893 µM

NQATTKTTF
Kd [22]: ≥ 79.9 µM
Kd ([8]; source organism: SARS-CoV1): 19.8 µM
Kd [23]: 7.15 µM
Kd ([9]; source organism: SARS-CoV1): 0.203 µM
Kd ([16]; source organism: SARS-CoV1): ≥ 57.3 µM
Kd ([11]; source organism: SARS-CoV1): 9.27 µM
